Measured values taken from paper PMC5823465 (PLoS Neglected Tropical Diseases, 2018).

Tests used:
Assay in all cases: ELISA; competition ELISA, KD in solution at equilibrium: serial dilutions of EDIII mixed with antibody at 0.2 nM, incubated overnight; unbound or singly bound antibody measured on Maxisorp plates coated with EDIII-DV1, detected with HRP rabbit anti-human IgG; mass action model adjusted for antibody bivalence
[1] = molecular target: VIS513
[2] = molecular target: EDIII domain of the E protein, DENV1 HAW, wild type (Dengue virus type 1, strain Hawaii 1944 …, UniProt A0A097PIH4, strain); conditions: both partners purified
[3] = molecular target: T1, EDIII domain of the E protein, DENV2 NGC, wild type (Dengue virus type 2, strain NGC …, UniProt A0A097PIE2, strain); conditions: both partners purified
T1 construct: also called DENV2 NGC WT; DV2-NGC

[4] = molecular target: EDIII domain of the E protein, DENV3 H87, wild type (Dengue virus type 3, strain H87 …, UniProt A0A0U2UQM7, strain); conditions: both partners purified

Molecule	Kd [1] [nM]	further results
EDIII domain of the E protein, DENV1 HAW, K310R (domain or fragment)	0.39	
EDIII domain of the E protein, DENV2 NGC, K310R (domain or fragment)	0.79	
EDIII domain of the E protein, DENV3 H87, K308R (domain or fragment)	170	
EDIII domain of the E protein, DENV3 H87, L301S (domain or fragment)	1.7	
EDIII domain of the E protein, DENV4 BC287, K310R (domain or fragment)	618	
VIS513 (antibody, V domains shown) VH: QVQLVQSGAEVKKPGASVKVSCKAGFNIKDVYMSWVRQAPEQGLEWMGRIDPENGDTKYDPKLQGRVTMTADTSTNTAYMELRSLRSDDTAVYYCARGWEGFAYWGQGTLVTVSS VL: DIVMTQSPASLAVSLGQRATISCRASENVDKYGNSFMHWYQQKPGQPPKLLIYRASELQWGVPDRFSGSGSGTDFTLTISSLQAEDVAVYYCQRSNEVPWTFGQGTKLEIK		Kd [2]: < 0.1 nM; Kd [3]: < 0.1 nM; Kd [4]: 1.5 nM
